Test results reported in PMC7949057, “The cytoprotective protein MANF promotes neuronal survival independently from its role as a GRP78 cofactor” (The Journal of Biological Chemistry, 2021).

B1: Nucleotide-binding domain (NBD) of GRP78 (domain or fragment)
chain: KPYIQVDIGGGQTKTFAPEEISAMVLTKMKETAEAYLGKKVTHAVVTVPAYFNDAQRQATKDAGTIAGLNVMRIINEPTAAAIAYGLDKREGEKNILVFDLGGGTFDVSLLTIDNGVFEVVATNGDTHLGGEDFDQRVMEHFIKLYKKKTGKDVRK
modifications: RED-tris-NTA dye held on the His-tag
B2: CH1-derived substrate peptide (HTFPAVL) (peptide)
peptide: HTFPAVL
notes: peptide derived from the CH1 domain of an IgG heavy chain; also called IgG heavy chain-derived peptide; source: synthetic peptide (custom synthesis by Pepscan)
B3: Recombinant human MANF protein (natural protein, UniProt P55145 25-182, looked up)
chain: LRPGDCEVCISYLGRFYQDLKDRDVTFSPATIENELIKFCREARGKENRLCYYIGATDDAATKIINEVSKPLAHHIPVEKICEKLKKKDSQICELKYDKQIDLSTVDLKKLRVKELKKILDDWGETCKGCAEKSDYIRKINELMPKYAPKAASARTDL
notes: MANF, human, mature protein secreted from CHO-derived cells; also called wild-type MANF; FL-MANF; source: CHO-derived cell line (QMCF technology), purified from culture media (Q FF, SP HP, SEC)

Assays:
Details in all cases: both partners purified
[1] = biological target: B3; assay: MST; GRP78 or its variants labelled through the N-terminal His-tag, constant 20 nM; ligand titrated in 2-fold dilutions; 25 °C; MST buffer (10 mM Na-phosphate pH 7.4, 1 mM MgCl2, 3 mM KCl, 150 mM NaCl, 0.05% Tween-20); no nucleotide; for MANF with GRP78 also 0, 1, 100 or 200 uM CaCl2; fit with 1:1 stoichiometry
[2] = biological target: T1, Recombinant hamster GRP78 protein (hamster, UniProt G3I8R9 19-654, RED-tris-NTA dye held on the His-tag); assay: as above
T1 construct: GRP78 (BiP), hamster; also called BiP; full-length GRP78; not shown: His-tag, N-terminal, kept

[3] = biological target: T1, Recombinant hamster GRP78 protein; assay: MST; as a4, in the presence of ADP
[4] = biological target: T1, Recombinant hamster GRP78 protein; assay: MST; as a4, in the presence of AMP

T1 sequence (G3I8R9 19-654): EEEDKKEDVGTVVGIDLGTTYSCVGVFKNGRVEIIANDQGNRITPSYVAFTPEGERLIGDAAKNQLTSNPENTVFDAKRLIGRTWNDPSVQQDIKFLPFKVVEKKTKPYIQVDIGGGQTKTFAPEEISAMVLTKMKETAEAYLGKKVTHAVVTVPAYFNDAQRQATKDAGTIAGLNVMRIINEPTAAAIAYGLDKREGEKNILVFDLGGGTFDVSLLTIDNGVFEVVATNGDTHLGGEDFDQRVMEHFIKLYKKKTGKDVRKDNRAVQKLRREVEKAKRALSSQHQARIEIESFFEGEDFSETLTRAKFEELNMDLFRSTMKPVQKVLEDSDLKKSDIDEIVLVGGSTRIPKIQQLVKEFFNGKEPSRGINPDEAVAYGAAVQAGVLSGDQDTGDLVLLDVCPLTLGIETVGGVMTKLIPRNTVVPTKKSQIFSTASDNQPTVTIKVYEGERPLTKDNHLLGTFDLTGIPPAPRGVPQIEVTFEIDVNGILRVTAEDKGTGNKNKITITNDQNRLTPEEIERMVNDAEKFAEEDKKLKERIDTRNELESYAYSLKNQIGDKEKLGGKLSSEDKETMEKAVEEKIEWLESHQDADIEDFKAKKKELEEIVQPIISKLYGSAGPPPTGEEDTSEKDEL

Binder	Kd [1]	Kd [2]	Kd [3]	Kd [4]
B1	0.28 µM			
B2		0.22 µM	0.12 µM	
B3		0.38 µM	5.69 µM	0.26 µM
